Results published in patent US20250270315A1 (ELPISCIENCE SUZHOU BIOPHARMA, published 2025).
Like-named read-outs stand apart in the source and are kept apart here.

T1: C57BL/6 mouse SIRPα ECD recombinant protein (6×His tagged) (C57BL/6 mouse, UniProt P97797 32-373)
T1 construct: extracellular domain; Bought from Biointron; not shown: 6×His tag
T1 sequence (looked up): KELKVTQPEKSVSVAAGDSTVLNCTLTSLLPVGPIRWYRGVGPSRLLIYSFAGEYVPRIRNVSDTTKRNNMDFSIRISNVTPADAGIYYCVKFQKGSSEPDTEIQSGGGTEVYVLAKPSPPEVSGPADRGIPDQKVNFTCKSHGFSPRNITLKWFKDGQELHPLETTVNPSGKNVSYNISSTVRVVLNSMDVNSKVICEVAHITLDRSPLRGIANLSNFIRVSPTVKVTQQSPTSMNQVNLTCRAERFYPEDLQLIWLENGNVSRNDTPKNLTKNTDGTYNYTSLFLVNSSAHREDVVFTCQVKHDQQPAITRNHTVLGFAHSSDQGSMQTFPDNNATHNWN


Key:
[1] = biological target: T1, C57BL/6 mouse SIRPα ECD recombinant …; experiment: ELISA, recombinant C57BL/6 mouse SIRPα ECD
From the text: Species cross reactivity of purified chimeric antibodies was detected by ELISA assay using recombinant protein of C57BL/6 mouse SIRPα ECD (FIG. 5A) and FACS assay using CHOK 1 cells stably expressing cyno SIRPα (FIGS. 5B and 5C). All antibodies as tested bind to cyno SIRPα at different levels but have no species cross reactivity against C57BL/6 mouse SIRPα.

[2] = biological target: T2, full length human SIRPα v1 with a small beta-gal fragment (ED) fused to its C-terminal, expressed in K562 … (human, UniProt P78324 31-504); experiment: cell-based or functional assay
T2 sequence (P78324 31-504): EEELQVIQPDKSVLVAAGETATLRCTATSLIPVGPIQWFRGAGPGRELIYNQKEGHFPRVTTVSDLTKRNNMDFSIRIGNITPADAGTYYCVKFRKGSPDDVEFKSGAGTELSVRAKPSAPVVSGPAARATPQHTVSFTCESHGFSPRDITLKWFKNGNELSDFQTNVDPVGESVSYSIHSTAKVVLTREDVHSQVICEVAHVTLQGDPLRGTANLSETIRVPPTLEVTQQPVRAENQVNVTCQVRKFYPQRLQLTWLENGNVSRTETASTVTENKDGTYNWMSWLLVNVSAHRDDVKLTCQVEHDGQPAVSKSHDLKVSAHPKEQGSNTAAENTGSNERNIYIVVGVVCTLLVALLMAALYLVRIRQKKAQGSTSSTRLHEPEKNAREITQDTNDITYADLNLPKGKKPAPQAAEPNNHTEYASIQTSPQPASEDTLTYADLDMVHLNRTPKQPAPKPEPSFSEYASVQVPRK

[3] = biological target: T3, full length human SIRPα v1 stably expressed on CHOK1 or 293F cells (human, UniProt P78324 31-504); experiment: FACS, CHOK1-hSIRPα v1 cells
T3 construct: whole, on cells; also called CHOK1-human SIRPα v1; CHOK1-hSIRPα v1
T3 sequence (P78324 31-504): as above

[4] = biological target: T4, Human SIRPα v1 (antigen of the Octet and Biacore affinity measurements) (human, UniProt P78324 31-370, limits assumed); experiment: BLI (Octet), 1:1 binding model
T4 sequence (P78324 31-370 limits assumed): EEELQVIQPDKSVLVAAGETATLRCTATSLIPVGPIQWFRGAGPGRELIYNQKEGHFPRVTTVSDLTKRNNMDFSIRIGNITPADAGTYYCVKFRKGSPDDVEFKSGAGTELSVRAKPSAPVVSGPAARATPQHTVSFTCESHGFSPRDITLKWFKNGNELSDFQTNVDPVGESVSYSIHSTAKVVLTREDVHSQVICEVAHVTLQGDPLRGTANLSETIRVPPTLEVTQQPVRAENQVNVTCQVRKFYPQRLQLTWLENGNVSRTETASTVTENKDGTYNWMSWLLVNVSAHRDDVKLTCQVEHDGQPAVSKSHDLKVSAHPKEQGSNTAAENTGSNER
Procedure: The purified chimeric antibodies were characterized for binding affinity against human SIRPα v1, human SIRPα v2 using Bio-Layer Interferometry technology (Octet system). The association and dissociation curves were fit with 1:1 binding model, and the Ka/Kd/KD values for each antibody were calculated.

[5] = biological target: T5, human SIRPα v2 ECD recombinant protein (tag not given) (human); experiment: competitive ELISA, mFc-CD47 ECD on coated SIRPα v2 ECD
T5 construct: extracellular domain; also called ELISA microplate coated human SIRPα v2 ECD
Procedure: (§1) Competitive ELISA assay was used to determine whether the purified chimeric antibodies can block CD47 and SIRPα interaction. Briefly, antibody and mFc tagged human CD47 ECD recombinant protein were co-incubated with ELISA microplate coated human SIRPα v1 ECD (FIGS. 6A and 6B) or human SIRPα v2 ECD (FIGS. 7A and 7B) recombinant protein. After washing, HRP labeled anti-mouse Fc 2nd antibody (Sigma) was added and incubated at 37° C. for 1 hour. Then, 100 μl/well of TMB solution (Biotechnology) was added. After incubation for 15 minutes at room temperature, the reaction was stopped by the addition of 50 μl of 1N HCl. OD 450 nm was read. Blocking ratio was determined by blockade of human CD47 ECD recombinant protein binding to ELISA microplate coated human SIRPα ECD recombinant protein. Other than 005, all antibodies as tested can block interaction between human CD47 and different human SIRPα variants.

[6] = biological target: T6, human SIRPβL ECD recombinant protein (6×His tagged) (human, UniProt Q5TFQ8 30-371); experiment: ELISA, hSIRPβI ECD
T6 construct: given variously as SIRPBL, SIRPBI and SIRPβI; Bought from Biointron; also called human SIRPBL ECD; human SIRPBI ECD
T6 sequence (Q5TFQ8 30-371 limits assumed): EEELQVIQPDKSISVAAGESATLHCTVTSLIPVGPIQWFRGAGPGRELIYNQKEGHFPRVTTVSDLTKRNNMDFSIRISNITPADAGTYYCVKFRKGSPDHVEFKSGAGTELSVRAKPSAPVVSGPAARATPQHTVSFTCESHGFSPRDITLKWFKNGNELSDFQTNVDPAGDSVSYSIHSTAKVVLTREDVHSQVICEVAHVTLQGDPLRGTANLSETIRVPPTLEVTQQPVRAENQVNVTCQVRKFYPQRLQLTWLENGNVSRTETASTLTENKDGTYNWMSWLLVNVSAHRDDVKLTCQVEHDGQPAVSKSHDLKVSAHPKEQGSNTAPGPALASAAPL
From the text: (§2) Binding activity of the purified chimeric antibodies against SIRPβ and SIRPBI was detected by ELISA assay using recombinant proteins of human SIRPβ ECD (FIGS. 3A and 3B), human SIRPBI ECD (FIGS. 3D and 3E) and FACS assay using CHOK 1 cells stably expressing human SIRPB (FIG. 3C).

[7] = biological target: T7, human SIRPβ ECD recombinant protein (6×His tagged) (human, UniProt O00241 30-371); experiment: ELISA, hSIRPβ ECD
T7 construct: extracellular domain; Bought from Sino Biological; also called hSIRPβ ECD; not shown: 6×His tag
T7 sequence (O00241 30-371): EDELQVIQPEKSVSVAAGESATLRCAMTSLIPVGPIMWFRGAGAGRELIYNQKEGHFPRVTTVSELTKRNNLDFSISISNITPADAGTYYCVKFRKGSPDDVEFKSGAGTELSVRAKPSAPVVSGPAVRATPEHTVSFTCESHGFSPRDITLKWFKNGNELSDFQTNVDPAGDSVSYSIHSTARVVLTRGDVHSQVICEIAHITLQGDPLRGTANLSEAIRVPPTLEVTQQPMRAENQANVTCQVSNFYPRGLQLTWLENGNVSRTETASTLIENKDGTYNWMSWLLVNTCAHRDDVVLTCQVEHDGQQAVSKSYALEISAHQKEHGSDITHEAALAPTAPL
From the text: as §2

[8] = biological target: T8, human SIRPα v1 ECD recombinant protein (tag not given) (human, UniProt P78324 31-373); experiment: competitive ELISA, mFc-CD47 ECD on coated SIRPα v1 ECD
T8 construct: extracellular domain; also called biotin labeled soluble human SIRPα v1 ECD recombinant protein; ELISA microplate coated human SIRPα v1 ECD
T8 sequence (P78324 31-373): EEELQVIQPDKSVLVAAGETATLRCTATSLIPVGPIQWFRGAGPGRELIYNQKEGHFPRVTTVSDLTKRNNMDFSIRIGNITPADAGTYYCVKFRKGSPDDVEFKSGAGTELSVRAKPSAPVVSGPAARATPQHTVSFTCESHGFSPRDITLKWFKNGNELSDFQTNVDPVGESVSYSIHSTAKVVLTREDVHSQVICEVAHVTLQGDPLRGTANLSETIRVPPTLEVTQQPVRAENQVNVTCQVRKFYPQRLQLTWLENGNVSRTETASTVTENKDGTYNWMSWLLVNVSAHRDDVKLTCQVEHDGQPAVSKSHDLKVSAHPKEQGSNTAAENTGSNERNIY
Procedure: as §1

[9] = biological target: T9, human SIRPγ stably expressed on 293F cells (human, UniProt Q9P1W8 29-387); experiment: FACS, 293F-human SIRPγ cells
T9 construct: whole, on cells
T9 sequence (Q9P1W8 29-387): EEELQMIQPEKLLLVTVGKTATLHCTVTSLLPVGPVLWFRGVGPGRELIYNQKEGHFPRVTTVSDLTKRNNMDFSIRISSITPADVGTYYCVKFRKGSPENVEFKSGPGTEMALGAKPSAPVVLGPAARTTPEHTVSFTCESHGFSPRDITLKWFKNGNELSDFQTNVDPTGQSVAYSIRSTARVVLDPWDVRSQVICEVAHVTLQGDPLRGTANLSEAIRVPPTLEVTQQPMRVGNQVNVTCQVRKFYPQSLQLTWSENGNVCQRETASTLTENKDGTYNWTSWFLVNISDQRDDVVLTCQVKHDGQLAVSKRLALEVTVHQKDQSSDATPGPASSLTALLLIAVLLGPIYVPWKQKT

[10] = biological target: T9, human SIRPγ stably expressed on 293F …; experiment: FACS, 293F-hSIRPγ cells
From the text: (§3) All the humanized antibodies as tested were confirmed to retain the similar activity as the parental antibody of 025c to bind to SIRP family members.

[11] = biological target: T2, full length human SIRPα v1 with a small …; experiment: cell-based or functional assay; remark: listed apart in the source
[12] = biological target: T4, Human SIRPα v1 (antigen of the Octet …); experiment: SPR (Biacore), 1:1 binding model
Procedure: The humanized antibodies were characterized for binding affinity against human SIRPα v1, human SIRPα v2 using Surface Plasmon Resonance technology (Biacore system). The association and dissociation curves were fit with 1:1 binding model, and the Ka/Kd/KD values for each antibody were calculated.

[13] = biological target: T10, human SIRPβ stably expressed on CHOK1 cells (human, UniProt O00241 30-398); experiment: FACS, CHOK1 cells stably expressing human SIRPβ
T10 construct: whole, on cells; also called CHOK1-human SIRPB; CHOK1-hSIRPβ
T10 sequence (O00241 30-398): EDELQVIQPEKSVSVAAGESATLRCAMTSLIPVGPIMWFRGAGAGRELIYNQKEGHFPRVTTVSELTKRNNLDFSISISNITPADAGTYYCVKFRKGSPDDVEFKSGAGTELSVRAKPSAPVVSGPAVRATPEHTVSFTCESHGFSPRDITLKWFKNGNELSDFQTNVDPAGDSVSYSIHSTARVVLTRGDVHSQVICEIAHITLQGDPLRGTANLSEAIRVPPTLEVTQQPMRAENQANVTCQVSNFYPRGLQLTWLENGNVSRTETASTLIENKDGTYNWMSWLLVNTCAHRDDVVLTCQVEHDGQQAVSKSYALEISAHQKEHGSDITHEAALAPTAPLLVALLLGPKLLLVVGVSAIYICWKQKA
From the text: as §3

[14] = biological target: T3, full length human SIRPα v1 stably …; experiment: FACS, CHOK1-hSIRPα v1 cells; remark: listed apart in the source
From the text: as §3

[15] = biological target: T3, full length human SIRPα v1 stably …; experiment: competitive FACS, mFc-CD47 ECD on CHOK1-human SIRPα v1 cells
Procedure: Competitive FACS assay was also set up to further compare the blocking activity of the humanized antibodies and reference antibodies. Briefly antibody and mFc tagged human CD47 ECD recombinant protein were co-incubated with CHOK1 cells stably expressing human SIRPα v1 (FIG. 16A) or human SIRPα v2 (FIG. 16B). After washing, dye labeled anti-mouse Fc 2nd antibody (Sigma) was added and incubated at 37° C. for 1 hour. Fluorescence intensity was detected. Blocking ratio was determined by blockade of human CD47 ECD recombinant protein binding to SIRPα expressed CHOK1 cells. […] In particular, HEFLB doesn't work at all for human SIRPα v2.

[16] = biological target: T8, human SIRPα v1 ECD recombinant protein …; experiment: competitive ELISA, mFc-CD47 ECD on coated SIRPα v1 ECD; remark: listed apart in the source
Procedure: as §1
(§4) The humanized antibodies were tested for the ability to block CD47 and SIRPα interaction with competitive ELISA assay (refer to methods described in Example 4.2.3.).

[17] = biological target: T10, human SIRPβ stably expressed on CHOK1 …; experiment: FACS, CHOK1-hSIRPβ cells (columns c6 and c7 read as swapped)
From the text: as §3

[18] = biological target: T5, human SIRPα v2 ECD recombinant protein …; experiment: competitive ELISA, mFc-CD47 ECD on coated SIRPα v2 ECD; remark: listed apart in the source
Procedure: as §1, §4

binding result [1]	SHP-1 recruitment blocking, IC50 [2] [nM]	SHP-1 recruitment blocking, TOP blocking (%) [2] [%]	EC50 [3] [nM]	TOP MFI [3] [MFI]	Kd [4] [nM]	koff [4] [s⁻¹]	kon [4] [M⁻¹ s⁻¹]	IC50 [5] [nM]	TOP blocking (%) [5] [%]	EC50 [6] [nM]	TOP OD450 [6] [OD450]	EC50 [7] [nM]	TOP OD450 [7] [OD450]	IC50 [8] [nM]	TOP blocking (%) [8] [%]	EC50 [9] [nM]	TOP MFI [9] [MFI]	EC50 [10] [nM]	TOP MFI [10] [MFI]	Binder	also measured
no binding	0.07	66.9	1.45	69800	2.25	0.00213	944000	54.1	84.4	0.7	3.35	0.03	2.75	2.63	97	34.1	2860	–	–	059c (antibody, V domains shown, also called chimeric antibody 059c) VH: QVQLQQSGPELVKPGASVKMSCKASGYTFSEYVLSWVKQRTGQGLEWIGEIYPGTITTYYNEKFKGKATLTADKSSNTAYIQLTSLTSEDSAVYFCGRFYDYDGGWFAYWGQGTLLTVSA VL: ENVLTQSPEKMAVSLGQKVTMTCSASSSVSSSDLHWYQQKSGASPKPLIHGTSNLASGVPARFSGSGSGTSYSLTISSVEAEDAATYYCQQWSGYPWTFGGGTNLEIK	–
no binding	0.09	73.5	1.49	80000	0.338	0.000303	897000	2.45	96.7	0.4	3.1	0.04	2.97	2.32	96.4	0.09	3300	–	–	015c (antibody, V domains shown, also called chimeric antibody 015c) VH: EVQLQQSGVEVVQPGASVKLSCTASGFNIEAYYMHWVKQRTEQGLEWIGRIDPEDGESKYAPKFQGKATMTADTSSSTAYLQLSSLTSDDTAVYYCVRGSYEYWGQGTTLTVSS VL: QIVLTQSPAIMSASPGEKVTLTCSASSSVSSSYLYWYQQKPGSSPKLWIYSTSNLASGVPPRFSGSGSGTSYSLTISSMQAEDAASYFCYQWSSYPYTFGGGTKLEIK	–
no binding	2.97	44.5	2.6	76500	5.97	0.00327	548000	5.1	76.3	0.3	2.66	1.53	2.98	2.86	94.1	–	–	–	–	071c (antibody, V domains shown, also called chimeric antibody 071c) VH: QIQLVQSGPELKKPGETVKISCKASGYTFTTYGMSWVKQAPGKGLKWMVWINTYSGVPTYADDFQGRFAFSLETSASTSYLQINNLRNEDTATYFCARDPHYYGTSPAWFAYWGQGTLVTVSA VL: DIVMTQSQKFMSTTIGDRVIITCKASQIVGIAVAWYQQKPGQSPKLLIYSASNRFTGVPDRFTGSGSGTDFTLTISNMQSEDLADYFCQQYSTYPFTFGSGTKLEIK	–
–	–	–	–	–	–	–	–	–	–	–	–	–	–	–	–	–	–	0.2	22400	hu025.023 (antibody, V domains shown, Humanized 025; also called hu025.23) VH: EVQLVQSGAEVKKPGATVKISCKVSGFNIKDYYMHWVQQAPGKGLEWIGRIDPEDAETKYAPKFQGRVTITADTSTNTAYMELSSLRSEDTAVYYCDRGLAYWGQGTLVTVSS VL: EIVLTQSPATLSLSPGERATLSCSASSSVSSSYLYWYQQKPGQAPKLWIYSTSNLASGIPARFSGSGSGTDFTLTISSLEPEDFAVYYCHQWSSYPYTFGQGTKLEIK	SHP-1 recruitment blocking, IC50 [11]: 0.1 nM; SHP-1 recruitment blocking, TOP blocking (%) [11]: 85.5%; Kd [12]: 2.67 nM; koff [12]: 0.00172 s⁻¹; kon [12]: 643000 M⁻¹ s⁻¹; EC50 (read off the curve) [13]: ~0.7 nM; EC50 [14]: 1.13 nM; TOP MFI [14]: 57800 MFI; IC50 [15]: 0.57 nM; TOP blocking (%) [15]: 97.7%; IC50 [16]: 2.6 nM; TOP blocking (%) [16]: 97.2%; EC50 [17]: 0.66 nM; TOP MFI [17]: 72800 MFI; IC50 [18]: 2.07 nM; TOP blocking (%) [18]: 98%
–	–	–	–	–	–	–	–	–	–	–	–	–	–	–	–	–	–	0.22	22200	hu025.060 (antibody, V domains shown, Humanized 025; also called hu025.60) VH: EVQLVQSGAEVKKPGATVKISCKASGFNIKDYYMHWVQQAPGKGLEWIGRIDPEDAETKYAPKFQGRVTITADTSTNTAYMELSSLRSEDTAVYYCDRGLAYWGQGTLVTVSS VL: EIVLTQSPATLSLSPGERATLSCSASSSVSSSYLYWYQQKPGQAPKLWIYSTSNLASGIPARFSGSGSGTDFTLTISSLEPEDFAVYYCHQWSSYPYTFGQGTKLEIK	SHP-1 recruitment blocking, IC50 [11]: 0.09 nM; SHP-1 recruitment blocking, TOP blocking (%) [11]: 87.5%; Kd [12]: 1.99 nM; koff [12]: 0.00111 s⁻¹; kon [12]: 560000 M⁻¹ s⁻¹; EC50 (read off the curve) [13]: ~0.7 nM; EC50 [14]: 0.84 nM; TOP MFI [14]: 61500 MFI; IC50 [15]: 0.53 nM; TOP blocking (%) [15]: 98.7%; IC50 [16]: 2.15 nM; TOP blocking (%) [16]: 95.2%; EC50 [17]: 0.75 nM; TOP MFI [17]: 71200 MFI; IC50 [18]: 1.88 nM; TOP blocking (%) [18]: 97%
